experiment: soluble fraction after stress (log2 fold change); higher = more stays soluble; pooled small domains, quantitative proteomics; details: stress: pH 4
How it was run: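 Custom libraries of small protein domains were pooled and exposed to pH 4. High-throughput quantitative proteomics then measured the log2 fold change in the amount of each domain still soluble, with higher values meaning more stayed soluble. This soluble-fraction fold change stands for aggregation propensity.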

Sequence | soluble fraction (log2)
HMSGRPPTYTAEERSAVIAAALSRPADLGLPFASWTLDRLVAYLGEKGIGMKRSRMSEVLLAEGLKW | -0.0116
HMETLYGQIVNDIMEKIESNAWPVGYVIPTESDFQKQYGVSRATVRNAILKLAHLGYLVRKKGSGTYVTRP | -0.287
HMGDAATVFRDHYNINSAAQAQAALDRKEALWEQPNPWRDSDNREVFDWAAQTVKDRFDSGKYKPK | -0.107
HMGASALTEREREVLRLLEGGGSDKRIARQLAISEHGVRYHLKSIYKKLGVHDRVSAIAAGRRLAS | ≥ 0.43
HMLLGDYIQKLRNQRGLSQQEFADKLGIGRSTLANYEQNKRSPDYETLIEISKFFNVSIDELLGV | -0.342
HMDFITPYEIEQGQYEGAELYEDGKFEEAFSLSSIAAQRGMKTAQYLLGIMFLKGEYVDQSLAIGMAW | -1.18
HMNPDDEMLLTYLTKLLVDKQFIVNSNDIFEYILRRVDRTYDGIYDIVSKLDVLSLEKKRQLTIPLIKEI | 0.103
HMSVPRVWTDIQGRRVKGDFEGLRGDLVVLRVGGKSYAFPLVRLIASDQAYARSLVAGNPSK | 0.22
HMHQLQLDSRSRLHMTGVIEVESFDEATIVLTTTRGTLIVRGENLHLQLLRLDGGEVLVDGTVDSLSYE | -1.22
HMDVNPETLSYYIERADISLDELRTSVKGIDLFLTGEKQPTFNQISNIAKKLNIPTGLLLINKPIEI | -1.37
HMNMNDIKFGKYLKRVRKKYNFSKEYVANILKVKESLVSDWESGRLTLNDEYMEKLSLFYGVNLYKK | -0.123
HMQETKDEGAQVLLNKINALVAAVQGQIITPEEAAIKLATDGDLDLDVDARVAAIEEFNKKLSEAQNN | -0.682
HMAYLTGFHAIEELIRAGKAKGPLLVANAGPRARTIMSLATDNKIRIDRLGEHELNRLAPGNRGIALYVE | ≥ 0.43
HMDSKPNDLLFVYVSQLIRSLTLNSSKKDSELADELEVSISQIRIWLKKLINEQLIVKESKPVKYRWKG | -0.327
HMVKGIVPNLIGKTQDEAKQMAEEYGFSIGTVSEKASDKPKGTVIEQSPKAGAKASGVTSINIVVSDGS | -0.247
HMNFKNMIDSLSGILFKKDPSAAIIDIGGVRLKVFITVGSYEQLPAKGEQVEILTYLHVKEDILNLYG | -0.819
HMDIGTYTVTASALNIRQYPTASSAKTGSYPNGSIVTIYEYLTDGSWGRTDDGWISMNYVSRRY | -1.37
HMNVDALIGTKGIVVQPIRPFAVGQVKVNGQVWSAVGKTPETDIEQGREVKVHAIEGVKLVVTPT | -0.134
HMKFHENLIALRRREGWSQEELGNRIGVTRQTVSKWELGLTTPELEKLVQLADVFGMTTDQLVGR | -0.111
HMWSNTAVIDRIRQLHEEGQPISSQSVQVNHKSLYMAAIKRFRGWKRAVEAAGIDYRQIRLR | 0.404
HMLDSGNPILPYKLSLLANVDIRTVRNAISAGELVAFKSEFDGEVYVENGSARRWLHGRRGFKPTLK | -0.772
HMESTLNYSQFLSLVNEDRVAEVVIQGKELYVTDVNRSRFKVYAPPDPELIGLLRQKRVIISAKP | 0.203
HMTPTITNALEEAEKAVSEVQEGKKEIELTPQGAYIRHLQHAIADRYGISSTSTGRDPKRKVIIY | -0.437
HMLPSMENWLGELSFWQTPWWERRDFSTFDNIAQSKEELDEFMSRDDNGAILERMQDPINTIEAE | -0.682
HMGLPLETVVTHATKLEIVRDGRVSGSIGLSAGVKVDVIALEGDNLQVRYRSLSGRVPVAHTGLAALA | -0.533
HMESILDDFPGLGEKRKKALLEHFGSISKIKAATVGQLREVDGIGFETAAALREFLDANFPA | 0.0668
HMGKAYMVPDVKNKSVNQAQLLLADKHMNGVVVDSSYVKELPAGIVLDQTPVGGMKVKEGRTVYLTINSD | 0.0742
HMSNIVNYEVYVYQNDAWDLLARYPSEKRAEAIEYAKSTEFSLNRPTKVIRETYDLDTQKFQEALIYLSE | -0.304

Sequence | soluble fraction (log2)
HMNPKTELMVYLKKRDEWVASQILSDVLQVSTRTIRKFVKEINMDYQTENVILSSSKGYKLNQNLLSSL | -0.281
HMRAAKSEDTRTRLIEGGMALFGQKGYNATGIKDITDAAGVPKGSFYNYFASKEDFGAEIIHSY | -0.0559
HMTEDADIERRLTGILASAGWYRSLAVEVKEGIVYLDGATASGNHRDWAGSLAAKTEGVVAVVNRIEVQP | -0.285
HMAKVDIPHEMVDQRIDEIVEEIKMNLESQNMSLDDYLKRMNQTEAQLRANYEATAAEQVRQGLV | -0.982
HMSTPLVATLRKRIIDGHYPPGERLAEIPVAEAFGVSRTPVRLAFRTLEQEGLLEKAGKRGYAVRA | 0.0231
HMTLGEHILQYRTARGWSQEDLANALEVSRQSVSKWETDASTPELDKIVRLSEIFQVSIDELVTGKA | 0.0683
HMDKQEKIHKKKIIILEALKRLLQNDVYSRITVQAVADEAGFSKGGLLHYFPTKEEMYIEFMEY | 0.092
HMDVQEILGALSPDEKAAIGQLTSGEKHIDQIIAATRLPAARITSALTLLQIKGYVRALPGKRFSLTEKQ | ≥ 0.43
HMIGGEDEILKVVLEVLEEKPEAIEQYKNGRTNIVDFLVGQVMKKTRGQANPATTREFMIREIEK | -0.999
HMGNYEEAILAFEAAIKIDPKNADAYRKLAEAYEKTGDEDAALRTLETGAEATGDRELADLAEKKRQELDA | 0.22
HMTAEASELRERIRAAMATLPPAQQRVIELAYFEGLTQREIAALLNEPLGTIKTRMRLGMRKLKDVL | 0.367
HMSTQVPDVKERSQEEARSILESAGFKVTPAVKTEDSADIAKDMVTKTDPAAGQSVPKGTTITIYVSS | 0.298
HMSPREDQQSRKQHILEAAAVLFAERGYYKTTTADVARAVGVTQPYVFHFFKSKEELYLAVL | 0.219
HMDGLTEQQADDILAFISIKGTNAEVLAALENYAGRNETFDTGLSELKVVASNLAAFGMPEENFVVDL | 0.0229
HMAIEMSTITKRVTSTGEIRYRALLQIRREDVNYTESRTFSKKSLAEAWLKKREVELEANPELLHQ | ≥ 0.43
HMKDYQGEISVVASGERIDVYLFNYFNLFSRTKIKNHIKNGNILVNENIISPSYILKQNDKIAFNLGAPY | -2.12
HMSQDEKITNYIYEGNKNTQTEAFVEAEKSYRKALSLSPEKPEALYNLGNTHFLDKQYDEASQRFF | -0.111
HMTANPHKPEPLQIDTSDITPGVTVIHKAFGNGTVVSVDNNRILIDFDGIEKKFPFPGAFLYGFLQK | -1.17
HMSSGLLTVQEQRILEHLANGERNGDIAGRLHISEGTVKWHLHNMYRKLDAATRTQAVARARALRL | -0.428
HMTFAPTAIPSLTRPMEELMSWSFTPNEAFILSRINGLWDVRSIAKISPFPEGEVLRVFEKLHDGGLIRW | -1.54
HMKPVYNKVEIPRGGEYALVLSDGTKVHLNSMSSLRFPVAFTTGKREVELQGEAYFEVSKTGQPFIVNV | 0.22
HMDKPVIEDVSFDDLAYMVGERVIIRTHLRSTRDGELKSFNRAGILVSLRNRPGMELEIPRSTVASAQVVW | -0.744
HMWKQISSEAELLPAVRSVIQANPGEAEKLRNGEMAPLEFLTGLVMKKTNGMAVPQIVKTLIKKELKI | 0.0805
HMRSYTPGSAFRLSSVPVYNAETGPSIGVRSGTYYIHSLPVSNGRIRMTNLISRVGKPGQVSFWVEISR | 0.0269
HMEVENAQLLARLTPQEHRVFERVVAGLSNREIGSEMDISIKTVEVHRARVMRKLEANSVAELVRFHIHN | -0.811
HMPNFDPSYILDFGDVIQLQLVGQKNQILEIPILRDGSVNLPDIGKIFLSGMSLEEATKIIKDTYSA | -1.28
HMIVNEQEQTFIKAMRDDDFNTILELKMKGYQPSDNVLKSLQPDISSTTFIAAAKIFQMERMLK | ≥ 0.43

— the domain aggregation screens of Martell et al. (2025)
